Laboratory results from patent US20150105324A1 (INDIANA UNIVERSITY RESEARCH AND TECHNOLOGY, published 2015).

Target: biotinylated PSD95 (PDZ domains 1-3, residues 1-435 of human PSD95, fused to a biotin acceptor peptide) (human, UniProt P78352 1-435, biotin at its internal biotin acceptor site)
Sequence (P78352 1-435): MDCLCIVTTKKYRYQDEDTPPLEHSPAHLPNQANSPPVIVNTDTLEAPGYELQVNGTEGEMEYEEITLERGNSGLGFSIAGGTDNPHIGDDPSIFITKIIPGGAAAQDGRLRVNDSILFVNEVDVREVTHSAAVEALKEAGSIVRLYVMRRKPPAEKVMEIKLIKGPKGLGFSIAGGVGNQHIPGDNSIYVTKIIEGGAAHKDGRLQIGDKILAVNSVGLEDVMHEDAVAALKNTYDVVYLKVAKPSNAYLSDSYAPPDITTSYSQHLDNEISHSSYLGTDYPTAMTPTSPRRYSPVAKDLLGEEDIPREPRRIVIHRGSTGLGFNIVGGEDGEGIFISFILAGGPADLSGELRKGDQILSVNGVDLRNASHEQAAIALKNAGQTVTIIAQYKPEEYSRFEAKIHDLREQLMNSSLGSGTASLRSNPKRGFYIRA

B1: Tat-nNOS (1-299) fusion protein (other)
chain: YGRKKRRQRRRMEDHMFGVQQIQPNVISVRLFKRKVGGLGFLVKERVSKPPVIISDLIRGGAAEQSGLIQAGDIILAVNGRPLVDLSYDSALEVLRGIASETHVVLILRGPEGFTTHLETTFTGDGTPKTIRVTQPLGPPTKAVDLSHQPPAGKEQPLAVDGASGPGNGPQHAYDDGQEAGSLPHANGLAPRPPGQDPAKKATRVSLQGRGENNELLKEIEPVLSLLTSGSRGVKGGAPAKAEMKDMGIQVDRDLDGKSHKPLPLGVENDRVFNDLWGKGNVPVVLNNPYSEKEQPPTSGKQSPTKNGSP
For B1, the IC50 was 300 nM.
